Measurements from publication PMC5335569, “Biophysical studies suggest a new structural arrangement of crotoxin and provide insights into its toxic mechanism” (Scientific Reports, 2017).

Biological target: the molecule itself
Test: small angle X-ray scattering

B1: Crotoxin B (enzyme)
chain: HLLQFNKMIKFETRKNAVPFYAFYGCYCGWGGQGRPKDATDRCCFVHDCCYGKLAKCNTKWDIYRYSLKSGYITCGKGTWCEEQICECDRVAAECLRRSLSTYKNGYMFYPDSRCRGPSETC
stoichiometry N: 4
